Experimental data taken from patent US20230257470A1 (published 2023).

T1: human FcγRIIa type R (human, UniProt P12318 36-217)
T1 construct: also called FcgRIIaR; FcγRIIa(R)
T1 chain: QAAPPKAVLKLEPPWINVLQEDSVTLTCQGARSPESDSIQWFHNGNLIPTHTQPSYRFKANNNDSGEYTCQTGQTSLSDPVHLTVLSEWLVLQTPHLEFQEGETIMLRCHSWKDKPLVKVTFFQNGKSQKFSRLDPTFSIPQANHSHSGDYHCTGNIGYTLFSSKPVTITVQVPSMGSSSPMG

T2: human FcγRIIa type H (human, UniProt P12318 36-217)
T2 construct: also called FcgRIIaH; FcγRIIa(H)
T2 sequence: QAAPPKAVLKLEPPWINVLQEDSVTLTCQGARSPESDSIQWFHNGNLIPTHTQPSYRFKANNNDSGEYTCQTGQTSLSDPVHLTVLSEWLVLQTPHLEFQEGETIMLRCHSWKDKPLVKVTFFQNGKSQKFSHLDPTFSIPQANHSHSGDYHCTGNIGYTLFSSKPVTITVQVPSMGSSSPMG

T3: human FcγRIIb (human, UniProt P31994 43-217, limits assumed)
T3 construct: also called FcgRIIb; FcγIIB
T3 sequence: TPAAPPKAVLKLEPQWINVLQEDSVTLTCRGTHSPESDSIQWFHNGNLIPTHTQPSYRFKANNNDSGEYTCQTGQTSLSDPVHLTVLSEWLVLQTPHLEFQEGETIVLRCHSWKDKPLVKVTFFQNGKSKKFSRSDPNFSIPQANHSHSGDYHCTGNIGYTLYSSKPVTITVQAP


What was measured:
Assay in all cases: SPR (Biacore), FcγR over captured antibody; binding amount divided by that of IL6R-BF648/IL6R-L x 100
[1] = biological target: T4, human FcγRIa (human, UniProt P12314 16-292, limits assumed)
T4 construct: also called FcgRIa; FcγRI (CD64)
Procedure: (§1) According to the following method, relative binding activities were calculated for the results of analyzing interactions with the respective FcγRs.

[2] = biological target: T1, human FcγRIIa type R
Procedure: as §1

[3] = biological target: T2, human FcγRIIa type H
Procedure: as §1

[4] = biological target: T3, human FcγRIIb
Procedure: as §1

[5] = biological target: T5, human FcγRIIIa type V (human, UniProt P08637 17-208, limits assumed)
T5 construct: also called FcgRIIIaV; FcγRIIIa(V)
T5 sequence (P08637 other isoform, or with tags, fused parts or gaps limits assumed): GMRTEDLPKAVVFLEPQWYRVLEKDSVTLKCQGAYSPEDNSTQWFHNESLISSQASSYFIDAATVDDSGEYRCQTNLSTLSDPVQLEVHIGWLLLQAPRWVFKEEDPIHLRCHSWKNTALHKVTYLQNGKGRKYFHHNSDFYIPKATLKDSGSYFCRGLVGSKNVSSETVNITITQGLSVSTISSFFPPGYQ
Procedure: as §1

T4 sequence (P12314 16-292 limits assumed): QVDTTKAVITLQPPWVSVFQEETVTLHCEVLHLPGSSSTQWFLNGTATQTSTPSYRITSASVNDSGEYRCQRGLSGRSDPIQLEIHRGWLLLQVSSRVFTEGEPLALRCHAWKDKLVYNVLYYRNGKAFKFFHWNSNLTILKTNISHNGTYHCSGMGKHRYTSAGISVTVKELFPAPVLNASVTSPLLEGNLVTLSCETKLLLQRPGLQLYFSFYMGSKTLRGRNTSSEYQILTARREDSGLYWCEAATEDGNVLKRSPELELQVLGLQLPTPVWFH

Row | relative binding activity [1] | relative binding activity [2] | relative binding activity [3] | relative binding activity [4] | relative binding activity [5] | Binder
1 | 43 relative (IL6R-BF648/IL6R-L = 100) | 222 relative (IL6R-BF648/IL6R-L = 100) | 186 relative (IL6R-BF648/IL6R-L = 100) | 147 relative (IL6R-BF648/IL6R-L = 100) | 136 relative (IL6R-BF648/IL6R-L = 100) | IL6R-BP089/IL6R-L (antibody, human IgG1, name in EU numbering, copies: 2 + 2) heavy: QVQLQESGPGLVKPSETLSLTCAVSGHSISHDHAWSWVRQPPGEGLEWIGFISYSGITNYNPSLQGRVTISRDNSKNTLYLQMNSLRAEDTAVYYCARSLARTTAMDYWGEGTLVTVSSASTKGPSVFPLAPSSKSTSGGTAALGCLVKDYFPEPVTVSWNSGALTSGVHTFPAVLQSSGLYSLSSVVTVPSSSLGTQTYICNVNHKPSNTKVDKKVEPKSCDKTHTCPPCPAPEYLGGDSVFLFPPKPKDTLMISRTPEVTCVVVDVSHEDPEVKFNWYVDGVEVHNAKTKPREEQYNSTYRVVSVLTVLHQDWLNGKEYKCKVSNAALPKPIEKTISKAKGQPREPQVYTLPPSRDELTKNQVSLTCLVKGFYPSDIAVEWESNGQPENNYKTTPPVLDSDGSFFLYSKLTVDKSRWQQGNVFSCSVMHEALHNHYTQESLSLSP light: DIQMTQSPSSLSASVGDRVTITCRASQDISSYLNWYQQKPGKAPKLLIYYTSRLHSGVPSRFSGSGSGTDFTFTISSLQPEDIATYYCQQGNTLPYTFGQGTKVEIK
2 | 25 relative (IL6R-BF648/IL6R-L = 100) | 377 relative (IL6R-BF648/IL6R-L = 100) | 166 relative (IL6R-BF648/IL6R-L = 100) | 161 relative (IL6R-BF648/IL6R-L = 100) | 122 relative (IL6R-BF648/IL6R-L = 100) | IL6R-BP088/IL6R-L (antibody, human IgG1, name in EU numbering, copies: 2 + 2) heavy: QVQLQESGPGLVKPSETLSLTCAVSGHSISHDHAWSWVRQPPGEGLEWIGFISYSGITNYNPSLQGRVTISRDNSKNTLYLQMNSLRAEDTAVYYCARSLARTTAMDYWGEGTLVTVSSASTKGPSVFPLAPSSKSTSGGTAALGCLVKDYFPEPVTVSWNSGALTSGVHTFPAVLQSSGLYSLSSVVTVPSSSLGTQTYICNVNHKPSNTKVDKKVEPKSCDKTHTCPPCPAPELLGDDSVFLFPPKPKDTLMISRTPEVTCVVVDVSHEDPEVKFNWYVDGVEVHNAKTKPREEQYNSTYRVVSVLTVLHQDWLNGKEYKCKVSNAALPKPIEKTISKAKGQPREPQVYTLPPSRDELTKNQVSLTCLVKGFYPSDIAVEWESNGQPENNYKTTPPVLDSDGSFFLYSKLTVDKSRWQQGNVFSCSVMHEALHNHYTQESLSLSP light: DIQMTQSPSSLSASVGDRVTITCRASQDISSYLNWYQQKPGKAPKLLIYYTSRLHSGVPSRFSGSGSGTDFTFTISSLQPEDIATYYCQQGNTLPYTFGQGTKVEIK

Continued, binder first:

Row | Binder | relative binding activity [1] | relative binding activity [2] | relative binding activity [3] | relative binding activity [4] | relative binding activity [5]
3 | IL6R-BP083/IL6R-L (antibody, human IgG1, name in EU numbering, copies: 2 + 2) heavy: QVQLQESGPGLVKPSETLSLTCAVSGHSISHDHAWSWVRQPPGEGLEWIGFISYSGITNYNPSLQGRVTISRDNSKNTLYLQMNSLRAEDTAVYYCARSLARTTAMDYWGEGTLVTVSSASTKGPSVFPLAPSSKSTSGGTAALGCLVKDYFPEPVTVSWNSGALTSGVHTFPAVLQSSGLYSLSSVVTVPSSSLGTQTYICNVNHKPSNTKVDKKVEPKSCDKTHTCPPCPAPELLGGDSVFLFPPKPKDTLMISRTPEVTCVVVDVSHEDPEVKFNWYVDGVEVHNAKTKPREEQDNSTYRVVSVLTVLHQDWLNGKEYKCKVSNKALPKPIEKTISKAKGQPREPQVYTLPPSRDELTKNQVSLTCLVKGFYPSDIAVEWESNGQPENNYKTTPPVLDSDGSFFLYSKLTVDKSRWQQGNVFSCSVMHEALHNHYTQESLSLSP light: DIQMTQSPSSLSASVGDRVTITCRASQDISSYLNWYQQKPGKAPKLLIYYTSRLHSGVPSRFSGSGSGTDFTFTISSLQPEDIATYYCQQGNTLPYTFGQGTKVEIK | 50 relative (IL6R-BF648/IL6R-L = 100) | 87 relative (IL6R-BF648/IL6R-L = 100) | 91 relative (IL6R-BF648/IL6R-L = 100) | 122 relative (IL6R-BF648/IL6R-L = 100) | 107 relative (IL6R-BF648/IL6R-L = 100)
4 | IL6R-BP087/IL6R-L (antibody, human IgG1, name in EU numbering, copies: 2 + 2) heavy: QVQLQESGPGLVKPSETLSLTCAVSGHSISHDHAWSWVRQPPGEGLEWIGFISYSGITNYNPSLQGRVTISRDNSKNTLYLQMNSLRAEDTAVYYCARSLARTTAMDYWGEGTLVTVSSASTKGPSVFPLAPSSKSTSGGTAALGCLVKDYFPEPVTVSWNSGALTSGVHTFPAVLQSSGLYSLSSVVTVPSSSLGTQTYICNVNHKPSNTKVDKKVEPKSCDKTHTCPPCPAPEYLGGDSVFLFPPKPKDTLMISRTPEVTCVVVDVSHEDPEVKFNWYVDGVEVHNAKTKPREEQYNSTYRVVSVLTVLHQDWLNGKEYKCKVSNKALPKPIEKTISKAKGQPREPQVYTLPPSRDELTKNQVSLTCLVKGFYPSDIAVEWESNGQPENNYKTTPPVLDSDGSFFLYSKLTVDKSRWQQGNVFSCSVMHEALHNHYTQESLSLSP light: DIQMTQSPSSLSASVGDRVTITCRASQDISSYLNWYQQKPGKAPKLLIYYTSRLHSGVPSRFSGSGSGTDFTFTISSLQPEDIATYYCQQGNTLPYTFGQGTKVEIK | 33 relative (IL6R-BF648/IL6R-L = 100) | 163 relative (IL6R-BF648/IL6R-L = 100) | 179 relative (IL6R-BF648/IL6R-L = 100) | 137 relative (IL6R-BF648/IL6R-L = 100) | 158 relative (IL6R-BF648/IL6R-L = 100)
5 | IL6R-BP085/IL6R-L (antibody, human IgG1, name in EU numbering, copies: 2 + 2) heavy: QVQLQESGPGLVKPSETLSLTCAVSGHSISHDHAWSWVRQPPGEGLEWIGFISYSGITNYNPSLQGRVTISRDNSKNTLYLQMNSLRAEDTAVYYCARSLARTTAMDYWGEGTLVTVSSASTKGPSVFPLAPSSKSTSGGTAALGCLVKDYFPEPVTVSWNSGALTSGVHTFPAVLQSSGLYSLSSVVTVPSSSLGTQTYICNVNHKPSNTKVDKKVEPKSCDKTHTCPPCPAPELLGDDSVFLFPPKPKDTLMISRTPEVTCVVVDVSHEDPEVKFNWYVDGVEVHNAKTKPREEQYNSTYRVVSVLTVLHQDWLNGKEYKCKVSNKALPKPIEKTISKAKGQPREPQVYTLPPSRDELTKNQVSLTCLVKGFYPSDIAVEWESNGQPENNYKTTPPVLDSDGSFFLYSKLTVDKSRWQQGNVFSCSVMHEALHNHYTQESLSLSP light: DIQMTQSPSSLSASVGDRVTITCRASQDISSYLNWYQQKPGKAPKLLIYYTSRLHSGVPSRFSGSGSGTDFTFTISSLQPEDIATYYCQQGNTLPYTFGQGTKVEIK | 19 relative (IL6R-BF648/IL6R-L = 100) | 279 relative (IL6R-BF648/IL6R-L = 100) | 158 relative (IL6R-BF648/IL6R-L = 100) | 152 relative (IL6R-BF648/IL6R-L = 100) | 104 relative (IL6R-BF648/IL6R-L = 100)
6 | IL6R-BP086/IL6R-L (antibody, human IgG1, name in EU numbering, copies: 2 + 2) heavy: QVQLQESGPGLVKPSETLSLTCAVSGHSISHDHAWSWVRQPPGEGLEWIGFISYSGITNYNPSLQGRVTISRDNSKNTLYLQMNSLRAEDTAVYYCARSLARTTAMDYWGEGTLVTVSSASTKGPSVFPLAPSSKSTSGGTAALGCLVKDYFPEPVTVSWNSGALTSGVHTFPAVLQSSGLYSLSSVVTVPSSSLGTQTYICNVNHKPSNTKVDKKVEPKSCDKTHTCPPCPAPELLGGDSVFLFPPKPKDTLMISRTPEVTCVVVDVSHEDPEVKFNWYVDGVEVHNAKTKPREEQYNSTYRVVSVLTVLHQDWLNGKEYKCKVSNAALPKPIEKTISKAKGQPREPQVYTLPPSRDELTKNQVSLTCLVKGFYPSDIAVEWESNGQPENNYKTTPPVLDSDGSFFLYSKLTVDKSRWQQGNVFSCSVMHEALHNHYTQESLSLSP light: DIQMTQSPSSLSASVGDRVTITCRASQDISSYLNWYQQKPGKAPKLLIYYTSRLHSGVPSRFSGSGSGTDFTFTISSLQPEDIATYYCQQGNTLPYTFGQGTKVEIK | 72 relative (IL6R-BF648/IL6R-L = 100) | 155 relative (IL6R-BF648/IL6R-L = 100) | 116 relative (IL6R-BF648/IL6R-L = 100) | 137 relative (IL6R-BF648/IL6R-L = 100) | 123 relative (IL6R-BF648/IL6R-L = 100)
7 | IL6R-BP084/IL6R-L (antibody, human IgG1, name in EU numbering, copies: 2 + 2) heavy: QVQLQESGPGLVKPSETLSLTCAVSGHSISHDHAWSWVRQPPGEGLEWIGFISYSGITNYNPSLQGRVTISRDNSKNTLYLQMNSLRAEDTAVYYCARSLARTTAMDYWGEGTLVTVSSASTKGPSVFPLAPSSKSTSGGTAALGCLVKDYFPEPVTVSWNSGALTSGVHTFPAVLQSSGLYSLSSVVTVPSSSLGTQTYICNVNHKPSNTKVDKKVEPKSCDKTHTCPPCPAPELLGGDSVFLFPPKPKDTLMISRTPEVTCVVVDVSHEDPEVKFNWYVDGVEVHNAKTKPREEQYNSTYRVVSVLTVLHQDWLNGKEYKCKMSNKALPKPIEKTISKAKGQPREPQVYTLPPSRDELTKNQVSLTCLVKGFYPSDIAVEWESNGQPENNYKTTPPVLDSDGSFFLYSKLTVDKSRWQQGNVFSCSVMHEALHNHYTQESLSLSP light: DIQMTQSPSSLSASVGDRVTITCRASQDISSYLNWYQQKPGKAPKLLIYYTSRLHSGVPSRFSGSGSGTDFTFTISSLQPEDIATYYCQQGNTLPYTFGQGTKVEIK | 109 relative (IL6R-BF648/IL6R-L = 100) | 203 relative (IL6R-BF648/IL6R-L = 100) | 162 relative (IL6R-BF648/IL6R-L = 100) | 141 relative (IL6R-BF648/IL6R-L = 100) | 106 relative (IL6R-BF648/IL6R-L = 100)
